Entries after “also recorded” stand apart in the source; their conditions may differ. Where two headings read alike, the source gives them in different places. Each block holds one compound with its values, some of them ahead of it.
Experiments:
MCF-7 cells = test: inhibition of nuclear entry of estrogen conjugated dye in MCF-7 cells; format: cell-based, Human
Procedure: The estrogenic activity is examined using human mammary carcinoma MCF-7 cells. The cells are cultured with various concentrations of Diethylstilbestrol (DES) and estrogen conjugated dye for more than 5 days and then the cells were counted.
A very clear distinction on non-specific binding is observed and the binding is only seen in the cytoplasm.

[1] = tissue kinetics in tumor tissue after injecting; format: in vivo; settings: for half-life: in tumor tissue, read-out: tissue-efflux half-life
MCF-7 [ER+] cells = test: NIRF staining / confocal laser microscopy of MCF-7 cells; format: cell-based, Human; settings: for cellular localisation / binding of fluorescence: MCF-7 (ER+), confocal microscopy, 1 μM
Procedure: (§1) Human breast cancer cell lines MCF-7 [ER+] and MDA-MB-231 [ER-] are obtained from National Centre for Cell science (NCCS (Pune)). The cells are cultured, revived and the experiments are carried out at Advanced Centre for Treatment, Research and Education in Cancer (ACTREC) of Tata Memorial Centre (Mumbai).
(§2) MCF-7 and MDA-MB-231 cells are cultured in DMEM/F12 medium without phenol red (ACTREC, Mumbai) supplemented with 10% fetal bovine serum. Cells in suspension (50 μl) are added to each well of a 96-well culture plate for a final concentration of 1×10^3 Cells/well and incubated for 24 h at 37° C. in carbon dioxide chamber.
The NIRFDC with initial concentration of 24.5 mg/2 ml of DMSO solution is added to each well, and the cultures further incubated for 2 h. The cells are treated at different concentration levels of 1:10, 1:50, 1:100, 1:500 and 1:1000 of DMSO. The cells were then re-suspended in 100 μl of 0.04N HCl/isopropanol solution.
Cell smears are prepared by rolling the swab across the top half of the well of a microscope slide. The opposite side of the swab is rolled over the bottom half of the well. There after the slide is allowed to air dry completely. Then the slide is fixed in chilled (2° to 8° C.) acetone for 10 minutes, which is further removed and allowed to air dry completely. Slides are stored at ≤−20° C. with desiccant. On completion, the cells are re-suspend to at least 400 μL in phosphate buffered saline and 200 μL is applied to each slide by cento-centrifugation at 800 rpm for 4 minutes [Br. J Cancer. 58:77-80, (1988)]. This procedure is repeated for fixing both the cell lines.
The smears are stained with the conjugate at different dilutions of 1:10, 1:50, 1:100, 1:500 and 1:1000 and incubated for an hour at about 25° C. Thereafter these cells are given 3 washes of phosphate buffered saline, mounted with DPX (Distrene Plasticyser Xylene) covered and imaged using the Olympus Confocal microscope.
MCF-7 cells maintained at 37° C. in a 5% CO2 atmosphere in phenol red-free minimal essential medium (MEM) containing 10% charcoal stripped calf serum and penicillin, streptomycin, glutamine, are incubated for 4 days in 24 multiwells (NUNC). After 4 days of culture, the medium is removed and the cells are incubated for 1 hour at 37° C. with […] at concentrations ranging from 0.3 nM to 1 nM. Medium is removed and the cells are washed twice with phosphate buffer saline (PBS). 250 μl of absolute ethanol is added to each well (exposition during 20 min).
The in-vitro studies are carried out using the inverted lens Olympus Fluo-View Confocal Microscope. The sample is excited at 754 nm and the emissions are observed using PMT having relatively higher quantum efficiency in the NIR-region.
(§3) These cells retained several characteristics of differentiated mammary epithelium including ability to process estradiol via Nuclear and cytoplasmic estrogen receptors and the capability of forming domes. MBA-MB-231 breast cancer cell lines are used as the control. […] The nuclear staining is pivotal towards early detection of cancer as 80% of the breast cancer reported are ER+ and could be detected by this characteristic feature. […]
In-vitro fluorescence signal of malignant cells bearing estrogen receptor positive with the control (cells without intracellular estrogen receptors) are studied. Fluorescence intensity generated by the NIRF Dye-Conjugate in particular to the nucleus and the entire cell is plotted as shown in the (FIG. 6 A, B). […]

[2] = optical properties of dye (absorption, emission, quantum yield); format: physicochemical; settings: for absorption maxima (wavelength): solvent not stated; for Quantum yield φ: ICG as standard
Procedure: The increased fluorescence quantum yield of the hydrophilic derivatives reduces the risk of the forming fluorescence-quenched aggregation. […] Thus the conjugate can be used for tagging estradiol because of its ability to form monoderivatized activated precursors as it has a carboxylic group which can be tailored to attach to functional groups of biomoloecules like estradiol.
The excitation and emission peaks for the conjugate are recorded in the NIR region as 757 nm and 788 nm respectively. The potential of the compound in the application as contrast agents for fluorescence imaging modalities, where the fluorescence emission of the dye is expected to be detectable in high sensitivity above low tissue background is analysed on the breast cancer cell lines MCF-7/MDA-MB-231.

[3] = ICG as standard; cited from earlier work
[4] = partition coefficient studies; format: physicochemical
MDA-MB-231 [ER-] cells = test: NIRF staining / confocal laser microscopy of MDA-MB-231 control cells; format: cell-based, Human; settings: 1 μM
Procedure: as §1
as §2, with “chamber. […]” for “chamber.”
as §3, with “domes.” for “domes. MBA-MB-231 breast cancer cell lines are used as the control.”
The cell lines are not controlled by the estrogen and lack the estrogen activity in the nucleus. After additional incubation under conditions permitting membrane traffic and thus endocytosis, fast and thorough internalization of ligand-receptor complexes into an intracellular compartment could be detected. […]

plasma protein binding = format: in vitro ADME
cell lines = test: toxic effect on the cell lines; format: cell-based; settings: glucosammonium ion in place of sodium ion
[5] = biological target: T1, Estrogen receptor (ER) in human breast cancer tissues (Homo sapiens, UniProt P03372); test: ER staining of breast carcinoma tissue sections; settings: Non-invasive Ductal, Lobular, Adenocarcinoma and Medullary Carcinoma
T1 construct: from tissue; host or cells: human breast carcinoma tumor tissue, formalin-fixed paraffin sections
Procedure: The avidin-biotin-peroxidase complex method is used for the paraffin sections fixed in cold buffered formalin and the results are compared with the ER content in the respective tumor tissue. The specific staining for ER is located exclusively in the nuclei of cancer cells in paraffin sections.
The tumor pieces are fixed in buffered formalin (0.1 M sodium phosphate, pH 7.4/10% formalin) for 24 hr at […]. After being rinsed overnight at […]. in 0.1 M sodium phosphate (pH 7.4), they are dehydrated with graded ethanol and embedded in paraffin. Paraffin sections (4 μm) are cut, deparaffinized with xylene, and rinsed thoroughly with absolute ethanol. Then they are soaked in absolute methanol containing 0.3% H2O2 for 30 min at 25° C. to decrease the endogenous peroxidase activity. The sections were washed three times with 50 mM Tris-HCl, pH 7.6/137 mM NaCl (Tris/NaCl) and were incubated with serum (10% in Tris/NaCl) for 30 min at 25° C. so as to reduce the nonspecific staining. Excess serum is removed by blotting. I˜g/ml) or with normal rat IgG (10 A·g/ml) for 30 min at 37° C. After being washed with Tris/NaCl. […]

T1 sequence (P03372 whole entry): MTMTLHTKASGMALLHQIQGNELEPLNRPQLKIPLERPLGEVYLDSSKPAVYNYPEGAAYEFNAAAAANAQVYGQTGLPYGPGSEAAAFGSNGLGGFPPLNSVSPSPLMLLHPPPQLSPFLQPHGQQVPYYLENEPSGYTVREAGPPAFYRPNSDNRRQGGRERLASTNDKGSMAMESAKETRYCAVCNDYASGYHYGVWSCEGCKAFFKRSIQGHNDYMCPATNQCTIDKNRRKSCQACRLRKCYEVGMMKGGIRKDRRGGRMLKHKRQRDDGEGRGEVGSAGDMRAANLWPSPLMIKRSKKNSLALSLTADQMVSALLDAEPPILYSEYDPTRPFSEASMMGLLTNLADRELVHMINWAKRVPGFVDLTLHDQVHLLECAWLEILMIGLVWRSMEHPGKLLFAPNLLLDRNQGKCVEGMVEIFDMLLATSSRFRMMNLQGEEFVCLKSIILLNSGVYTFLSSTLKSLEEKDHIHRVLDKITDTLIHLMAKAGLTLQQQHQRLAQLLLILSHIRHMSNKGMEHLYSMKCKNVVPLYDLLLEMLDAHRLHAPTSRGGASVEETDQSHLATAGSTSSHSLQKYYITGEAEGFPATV

SMILES: CC/C(=C(/CC)c1ccc(O)cc1)c1ccc(O)cc1 [Diethylstilbestrol]
- blocking of entry of the estradiol conjugate into the nucleus (MCF-7 cells): inhibited the entry of the estradiol into the nucleus
- blocking of entry of the estradiol conjugate into the nucleus (MCF-7 cells; listed as DES): blocking operation of the estrogen conjugated dye from entering the nucleus

- half-life ([1]; other: injection (type not specified)): < 0.167 h
- absorption maxima (wavelength) [2]: 780
SMILES: CC1(C)C(/C=C/C=C/C=C/C=C2\N(CCCCS(=O)(=O)O)c3ccc4ccccc4c3C2(C)C)=[N+](CCCCS(=O)(=O)[O-])c2ccc3ccccc3c21 [ICG, Indocyanine Green, reference compound]
- cellular localisation / binding of fluorescence (MCF-7 [ER+] cells): only stains the cells without entering the nucleus of the cell
- quantum yield φ of the standard [3]: 0.13

SMILES: CC/C(=C(\c1ccccc1)c1ccc(OCCN(C)C)cc1)c1ccccc1 [Tamoxifen]
- blocking of entry of the estradiol conjugate into the nucleus (MCF-7 cells): inhibited the entry of the estradiol into the nucleus; also recorded: blocking operation of the estrogen conjugated dye entering the nucleus

SMILES: CC1(C)C(/C=C/C=C/C=C/C=C2\N(CCCCS(=O)(=O)O)c3ccc(C(=O)Oc4ccc5c(c4)CCC4C5CC[C@@]5(C)C4CC[C@@H]5O)cc3C2(C)C)=[N+](CCCCS(=O)(=O)[O-])c2ccc(C(=O)Oc3ccc4c(c3)CCC3C4CC[C@@]4(C)C3CC[C@@H]4O)cc21 (stereo partly drawn) [conjugate]
- partition coefficient [4]: less than 0.005
- cellular localisation / binding of fluorescence (MDA-MB-231 [ER-] cells): only the plasma membrane staining
- cellular localisation / binding of fluorescence (MDA-MB-231 [ER-] cells; listed as NIRFDC): poor binding of conjugate into the nucleus
- fraction unbound (plasma protein binding): > 0.5
- initial tissue absorption coefficient compared to ICG ([1]; in vivo): two-fold higher
- half-life ([1]; other: injection (kind of injection not stated)): 1.22 h
- tumor-to-tissue concentration gradient ([1]; up to one hour after injecting): elevated tumor-to-tissue concentration gradient for up to one hour after injecting
- signal intensity of MCF-7 cells compared to MDA-MB-231 (MCF-7 [ER+] cells; 24 h): ~2.4 fold
- cellular localisation / binding of fluorescence (MCF-7 [ER+] cells): specific high affinity binding sites of estrogen molecule on to the nucleus and membrane
- cellular localisation / binding of fluorescence (MCF-7 [ER+] cells; listed as NIRFD-conjugate): majority of the receptor-associated fluorescence co-localized at the Nucleus and a minority in the plasma membrane
- cellular localisation / binding of fluorescence (MCF-7 [ER+] cells; listed as NIRFDC): very clear localization of conjugated dye in the nucleus; also recorded: significant amount of binding is seen in the nucleus
- toxic effect on the cell lines (cell lines): reduce the toxic effect on the cell lines
- ER staining of carcinoma tissue [5]: ER staining which are confined to the nuclei
- Stokes' shift of fluorescence maximum [2]: 38 nm
- Strokes' shift ([2]; DMSO): 30
- λmax absorption ([2]; DMSO): 757 nm
- λmax emission ([2]; DMSO): 787 nm
- Quantum yield φ ([2]; DMSO): 0.114
- emission peak ([2]; NIR region): 788 nm
- excitation peak ([2]; NIR region): 757 nm
- Strokes' shift ([2]; PBS): 33
- λmax absorption ([2]; PBS): 755 nm
- λmax emission ([2]; PBS): 788 nm
- Quantum yield φ ([2]; PBS): 0.110
- enhancement of fluorescence quantum yields with respect to ICG ([2]; physiological environment): 7-15%
- absorption maxima (wavelength) [2]: 757
